In general, Kd refers to the concentration at which binding is half-saturated. One may read the koff as the first-order rate constant of dissociation. Lower therefore signals slow dissociation. In general, kon refers to the second-order rate constant of association. Low values mean slower complex formation, high ones faster complex formation.

The results in this text go back to US20140271651A1 (AbbVie / Abbott, published 2014).

Assay [1] deals with T1, bovine serum albumin (bovine, UniProt P02769 25-607).
T1 construct: also called BSA
T1 sequence (P02769 25-607 limits assumed): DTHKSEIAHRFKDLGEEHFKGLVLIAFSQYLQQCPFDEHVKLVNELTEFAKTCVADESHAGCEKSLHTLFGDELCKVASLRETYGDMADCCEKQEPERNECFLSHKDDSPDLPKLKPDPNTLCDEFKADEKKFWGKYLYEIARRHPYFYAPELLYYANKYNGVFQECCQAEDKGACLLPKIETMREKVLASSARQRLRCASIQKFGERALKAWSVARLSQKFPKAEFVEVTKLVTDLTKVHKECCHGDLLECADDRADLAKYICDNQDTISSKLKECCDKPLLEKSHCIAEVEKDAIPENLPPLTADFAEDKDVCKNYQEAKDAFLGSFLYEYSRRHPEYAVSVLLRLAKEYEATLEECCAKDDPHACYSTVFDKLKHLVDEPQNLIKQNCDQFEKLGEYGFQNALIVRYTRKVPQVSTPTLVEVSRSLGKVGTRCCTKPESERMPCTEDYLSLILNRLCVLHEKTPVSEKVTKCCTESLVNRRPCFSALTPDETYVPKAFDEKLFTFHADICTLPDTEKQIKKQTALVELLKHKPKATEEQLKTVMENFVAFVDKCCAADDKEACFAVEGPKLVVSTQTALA
Kind of assay: EIA, supernatant 1:25 captured on sheep anti-mouse IgG Fc, BSA in place of antigen. The method, then: (§1) Cell supernatant samples were analyzed for anti-GP73 antibodies by EIA. Sheep anti-mouse IgG Fc (Jackson Immunoresearch) was coated on 96 well micro-titer EIA plates at 1 μg/mL. After the capture reagent was coated on the solid phase, it was removed and the plates were blocked using a BSA/PBS block solution. The wells were washed with distilled water and cell supernatants were added to the blocked plates and allowed to incubate at room temperature for at least one hour. A mouse monoclonal antibody 14H4-23 (Drexel University) was used a positive control. The anti-mouse IgG Fc captured the anti-GP73 mouse antibody from the supernatant. Following the incubation, the supernatants were washed off using distilled water. An irrelevant mouse-human chimeric antibody was added to all wells and incubated at room temperature for 30 min to block any captured mouse antibodies that react with the human IgG Fc fusion protein linked to the GP73 antigen. The wells were washed with distilled water and GP73-hFc was added to the plates at 200 ng/mL and incubated for 30 min. Following this incubation, the antigen was washed from the plates using distilled water. Biotin labeled goat anti-GP73 was added to the plates at 200 ng/mL and incubated for 30 min at room temperature. The plates were washed and streptavidin-HRPO (Jackson Immunoresearch) (diluted to approximately 200 ng/mL) was added to the plates and allowed to incubate for 30 min. The plates were washed with distilled water and OPD substrate was used as the chromagen to generate signal. Plates were read at 492 nm and the results were analyzed.
Positive clones were expanded to 24 well plates in IMDM supplemented with 10% FBS and HT supplement. Following 5-14 days growth, the 24 well cultures were evaluated by EIA in the same manner as previously described, except the supernatant samples were titrated against GP73-hFc and BSA to eliminate non-specific protein binders. Once again the clones generating signal at least 3 times greater than background were considered positive and selected for further evaluation.

Assay [2] concerns the target T2, GP73-hFc (human GP73 amino acids 63 to 400 fused at the C-terminus to human IgG1 Fc) (human).
T2 construct: Expressed in HEK293F, CHO or HepG2 cells; the host is named under assay; also called HEK expressed GP73-hFc; CHO expressed GP73-hFc
T2 chain: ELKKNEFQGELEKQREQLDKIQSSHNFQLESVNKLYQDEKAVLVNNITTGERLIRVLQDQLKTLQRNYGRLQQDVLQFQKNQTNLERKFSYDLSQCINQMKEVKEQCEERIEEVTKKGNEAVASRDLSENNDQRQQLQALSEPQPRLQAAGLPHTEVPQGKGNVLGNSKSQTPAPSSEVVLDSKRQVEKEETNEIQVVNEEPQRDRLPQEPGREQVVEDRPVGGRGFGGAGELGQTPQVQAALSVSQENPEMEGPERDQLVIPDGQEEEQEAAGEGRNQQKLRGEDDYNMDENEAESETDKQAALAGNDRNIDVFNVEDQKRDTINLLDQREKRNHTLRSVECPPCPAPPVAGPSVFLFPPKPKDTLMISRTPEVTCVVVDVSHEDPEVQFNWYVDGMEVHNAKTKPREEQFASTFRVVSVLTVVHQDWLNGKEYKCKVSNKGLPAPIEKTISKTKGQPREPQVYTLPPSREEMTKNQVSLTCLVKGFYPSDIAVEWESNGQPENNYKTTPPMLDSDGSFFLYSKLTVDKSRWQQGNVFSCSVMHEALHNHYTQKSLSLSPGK
Briefly: SPR Biacore 2000, mAb captured on rabbit anti-mouse IgG, HEK GP73-hFc analyte 0.412-100 nM, 1:1 fit. The method, then: First, an approximately 13,000-15,000 RU rabbit anti-mouse IgG Capture Biosensor was created by amine-coupling rabbit anti-mouse IgG antibody (GE Healthcare) to a CM5 biosensor chip (GE Healthcare) via EDC/NHS/ethanolamine chemistry provided in an Amine Coupling Kit (GE Healthcare) after pre-treating the biosensor with duplicate injections of 100 mM HCl, 50 mM NaOH, and 0.1% SDS. Purified GP73 antibody and antigen (HEK GP73-hFc) were diluted into a running buffer (hereinafter “running buffer”) composed of HBS-EP buffer (GE Healthcare) supplemented with 0.1% BSA and 0.1% CM-Dextran. Each GP73 antibody was diluted to 1 μg/mL. The GP73-hFc antigen was diluted to concentrations of 0.412 to 100 nM using a 3-fold dilution series assuming an oligomeric molecular weight of 490 kDa (Abbott Laboratories).
The GP73-hFc antigen program was as follows. After equilibrating the rabbit anti-mouse IgG Capture Biosensor for 3 min at 5 μL/minute with running buffer, GP73 antibody (7-14 μL) was injected over individual flow cells with one flow cell being left blank as a reference flow cell. The flow cells were washed with running buffer for 3 min at a flow rate of 60 μL/min. 150 μL of HEK293 expressed GP73-hFc antigen at a random concentration was injected across the biosensor. The biosensor was subsequently re-equilibrated with running buffer for 5 min at a flow rate of 60 μL/minute. All biosensor surfaces were regenerated with one 30 μL injection of 10 mM glycine, pH 1.7 (GE Healthcare), at a flow rate of 10 μL/minute. All concentrations of HEK293 expressed antigen were tested in duplicate. The binding kinetics (association and dissociation) were monitored via sensorgrams during antigen injection and running buffer re-equilibration. The sensorgrams were double-referenced and fit to a 1:1 binding model using Scrubber 2.0 software (BioLogic Software Pty Ltd., Australia) to determine association and dissociation rates, as well as overall KD. Standard errors of determined values are reported in parentheses with respect to the smallest number place value.
For orientation: In SPR one partner is held on a chip, and binding of the other changes the refractive index at the surface.

For assay [3], the target named is T1, bovine serum albumin. Briefly: sandwich EIA, rabbit anti-GP73 coated 1 ug/mL, BSA background, supernatant 1:125, HRP goat anti-mouse IgG Fc. The method, then: as §1
(§2) The 24 well cultures were then evaluated by EIA for their ability to form a sandwich with the rabbit anti-GP73 used as a capture reagent coated directly on the solid phase. The same EIA protocol previously described was used, except rabbit anti-GP73 antibody was coated at 1 μg/mL, the GP73-hFc was tested at 200 ng/mL, and a HRP labeled goat anti-mouse IgG FC antibody was used as the conjugate reagent to generate signal.

The target in assay [4] is T2, GP73-hFc (human GP73 amino acids 63 to …). Kind of assay: sandwich EIA, rabbit anti-GP73 coated 1 ug/mL, GP73-hFc 200 ng/mL, supernatant 1:125, HRP goat anti-mouse IgG Fc. Here is the method:
as §1, §2

Assay [5] has the same target. Kind of assay: EIA, supernatant mAb captured on sheep anti-mouse IgG Fc, GP73-hFc 200 ng/mL, biotin goat anti-GP73/streptavidin-HRPO; background 0.06. Here is the method: as §1

B1: anti-GP73 monoclonal antibody 1B-4863 (antibody, V domains shown)
VH: QVQLKESGPGLVAPSQSLSITCTVSGFSLTSYGVHWVRQSPGKGLEWLGVIWTGGSTNYNSALMSRLSISKDNSESQVFLKVNSLQTDDTGMYYCARDPGTDYFDYWGQGTTLTVSS
VL: DIVMTQSHKFMSTSIGDRVSISCKASQDVSIDVSWYQQKPGQSPTLLIYSASYRYIGVPDRFTGSGSGTAFTFTISSVQAEDLAIYYCQQHFTTPLTFGAGTKLELKR
notes: Biotin labelled in some assays; also called mAb 1B-4863; 1B-4863-Bt
Turning to B1, the “BSA Background OD (A492)” value in the assay with bovine serum albumin [1] is 0.06 OD (A492). In assay [2], this molecule returned a Kd of 0.12 nM, a koff of 0.00025 s⁻¹ and a kon of 2.06e+06 M⁻¹ s⁻¹. In the assay with bovine serum albumin [3], the “BSA Background OD (A492)” value was 0.1 OD (A492). The “GP73-hFc OD (A492)” value in assay [4] was 1.41 OD (A492). For the same molecule, the “OD (A492)” value in assay [5] was 1.44 OD (A492).

B2: anti-GP73 monoclonal antibody 1B-4971 (antibody, V domains shown)
VH: QVQLQQSGPALVKPGASVKMSCKASGYTFTNYVIHWVKQKPGQGLERIGYIWPYNDGTKFNEKFKGKATLTSDKSSSTAYMELSSLTSEDSAVYYCSSQQLAYWGQGTTLTVSS
VL: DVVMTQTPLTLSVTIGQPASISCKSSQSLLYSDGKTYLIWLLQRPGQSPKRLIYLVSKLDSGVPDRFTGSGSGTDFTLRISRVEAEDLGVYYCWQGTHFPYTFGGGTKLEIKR
notes: Biotin labelled in some assays; also called mAb 1B-4971; 1B-4971-Bt
Turning to B2, the “BSA Background OD (A492)” value with bovine serum albumin [1] and with bovine serum albumin [3] was 0.1 OD (A492) each time. The Kd in assay [2] is ≤ 0.002 nM. The kon in assay [2] was determined as 3.9e+06 M⁻¹ s⁻¹. Further, the “GP73-hFc OD (A492)” value in assay [4] was 1.6 OD (A492). In addition, the “OD (A492)” value in assay [5] was 1.79 OD (A492).

B3: anti-GP73 monoclonal antibody 1B-3440 (antibody, V domains shown)
VH: EVQLVETGGGLVQPKGSLKLSCAASGFTFNTNAMNWVRQAPGKGLEWVARIRTKRYNYTTFYADSVKDRFTISRDDSQSMLFLQMNNLKTEDTAMYYCVTGGTGTFDYWGQGTTLTVSS
VL: EIVLTQSPTTMPASPGEKVTFTCSASSGISSNYLHWYQLKPGFSPKLLIYRTSNLASGVPARFSGGGSGTSYSLTIGTMEAEDVATYYCQQGFSIPLTFGAGTKLELKR
notes: Biotin labelled in some assays; also called mAb 1B-3440; 1B-3440-Bt
As to B3, the “BSA Background OD (A492)” value in the assay with bovine serum albumin [1] is 0.09 OD (A492). In assay [2], this molecule yielded a Kd of 0.091 nM, a dissociation rate constant (koff) of 0.00018 s⁻¹ and a kon of 1.98e+06 M⁻¹ s⁻¹. Besides, the “BSA Background OD (A492)” value with bovine serum albumin [3] was 0.12 OD (A492). Moreover, in assay [4], the “GP73-hFc OD (A492)” value is 0.76 OD (A492). Further, the “OD (A492)” value in assay [5] was 1.46 OD (A492).
